These results are taken from patent publication US20220016127A1, “COMPOSITIONS AND METHODS FOR INDUCING APPENDAGE AND LIMB REGENERATION” (priority 2020, published 2022).

The assay relates to Aurelia ephyra. Description: Arm regeneration induction in amputated Aurelia ephyrae. It counts as in vivo, Aurelia aurita. The following applies: amputated ephyrae, factor added to artificial seawater upon amputation. As to the method:
Amputation. Strobilated ephyrae were fed daily with rotifers (Brachionus plicatilis) until amputation time. 2-3 days old ephyrae were anesthetized in 400 μM menthol and amputated using a razor blade mounted on an x-acto knife handle. After amputation, ephyrae were let to recover in bubbler cones (FIG. 7). Regeneration was assessed at various times until 1-2 weeks after amputation, before onset of maturation to medusa.
Inducing regeneration. Experimental setup. 0.5-1 L sand settling cones were repurposed as jellyfish aquaria (Nalgene Imhoff; FIG. 7). Each cone was equipped with an airline from a Tetra Whisper air pump 100 to create a gentle vertical current (˜1 bubble/sec, see FIG. 30). The conical geometry eliminates stagnant spots, where the ephyrae could get stuck. In this “bubbler cone” setup, the ephyrae were continually in water current either in the upward air bubble-generated current or the downward self-generated current. 500 mL artificial seawater and 30 ephyrae were placed in each cone to avoid crowding and fouling. Artificial seawater was changed every week. Nutrients. […]
Amputation. […] Regeneration was assessed at various times for 1-2 weeks after amputation, before onset of maturation to medusa. […]

B1: Egf: protein tested in the screen (hEGF recombinant, Sigma E9644) (protein, UniProt P01133 23-1207, looked up)
Pro-epidermal growth factor: PQHWSCPEGTLAGNGNSTCVGPAPFLIFSHGNSIFRIDTEGTNYEQLVVDAGVSVIMDFHYNEKRIYWVDLERQLLQRVFLNGSRQERVCNIEKNVSGMAINWINEEVIWSNQQEGIITVTDMKGNNSHILLSALKYPANVAVDPVERFIFWSSEVAGSLYRADLDGVGVKALLETSEKITAVSLDVLDKRLFWIQYNREGSNSLICSCDYDGGSVHISKHPTQHNLFAMSLFGDRIFYSTWKMKTIWIANKHTGKDMVRINLHSSFVPLGELKVVHPLAQPKAEDDTWEPEQKLCKLRKGNCSSTVCGQDLQSHLCMCAEGYALSRDRKYCEDVNECAFWNHGCTLGCKNTPGSYYCTCPVGFVLLPDGKRCHQLVSCPRNVSECSHDCVLTSEGPLCFCPEGSVLERDGKTCSGCSSPDNGGCSQLCVPLSPVSWECDCFPGYDLQLDEKSCAASGPQPFLLFANSQDIRHMHFDGTDYGTLLSQQMGMVYALDHDPVENKIYFAHTALKWIERANMDGSQRERLIEEGVDVPEGLAVDWIGRRFYWTDRGKSLIGRSDLNGKRSKIITKENISQPRGIAVHPMAKRLFWTDTGINPRIESSSLQGLGRLVIASSDLIWPSGITIDFLTDKLYWCDAKQSVIEMANLDGSKRRRLTQNDVGHPFAVAVFEDYVWFSDWAMPSVMRVNKRTGKDRVRLQGSMLKPSSLVVVHPLAKPGADPCLYQNGGCEHICKKRLGTAWCSCREGFMKASDGKTCLALDGHQLLAGGEVDLKNQVTPLDILSKTRVSEDNITESQHMLVAEIMVSDQDDCAPVGCSMYARCISEGEDATCQCLKGFAGDGKLCSDIDECEMGVPVCPPASSKCINTEGGYVCRCSEGYQGDGIHCLDIDECQLGEHSCGENASCTNTEGGYTCMCAGRLSEPGLICPDSTPPPHLREDDHHYSVRNSDSECPLSHDGYCLHDGVCMYIEALDKYACNCVVGYIGERCQYRDLKWWELRHAGHGQQQKVIVVAVCVVVLVMLLLLSLWGAHYYRTQKLLSKNPKNPYEESSRDVRSRRPADTEDGMSSCPQPWFVVIKEHQDLKNGGQPVAGEDGQAADGSMQPTSWRQEPQLCGMGTEQGCWIPVSSDKGSCPQVMERSFHMPSYGTQTLEGGVEKPHSLLSANPLWQQRALDPPHQMELTQ
modifications: Pro-epidermal growth factor
As to B1, the “effect on arm regeneration / regeneration frequency (in words)” value was “no effect”.
